Experimental data as given in the DeepSol protein solubility set.

assay: soluble on expression in E. coli; label from the status in PepcDB or PDB records

| Sequence | soluble on expression in E. coli |
| --- | --- |
| SMGSDDEEQEDPADYCKGGYHPVKIGDLFNGRYHVIRKLGWGHFSTVWLCWDMQGKRFVAMKVVKSAQHYTETALDEIKLLKCVRESDPSDPNKDMVVQLIDDFKISGMNGIHVCMVFEVLGHHLLKWIIKSNYQGLPVRCVKSIIRQVLQGLDYLHSKCKIIHTDIKPENILMCVDDAYVRRMAAEATEWQKAGAPPPSGSAVSTAPAADLLVNPLDPRNADKIRVKIADLGNACWVHKHFTEDIQTRQYRSIEVLIGAGYSTPADIWSTACMAFELATGDYLFEPHSGEDYSRDEDHIAHIIELLGSIPRHFALSGKYSREFFNRRGELRHITKLKPWSLFDVLVEKYGWPHEDAAQFTDFLIPMLEMVPEKRASAGECLRHPWLNS | soluble |
| MSLKISDGNWLIQPGLNLIHPLQVFEVEQQDNEMVVYAAPRDVRERTWQLDTPLFTLRFFSPQEGIVGVRIEHFQGALNNGPHYPLNILQDVKVTIENTERYAEFKSGNLSARVSKGEFWSLDFLRNGERITGSQVKNNGYVQDTNNQRNYMFERLDLGVGETVYGLGERFTALVRNGQTVETWNRDGGTSTEQAYKNIPFYMTNRGYGVLVNHPQCVSFEVGSEKVSKVQFSVESEYLEYFVIDGPTPKAVLDRYTRFTGRPALPPAWSFGLWLTTSFTTNYDEATVNSFIDGMAERNLPLHVFHFDCFWMKAFQWCDFEWDPLTFPDPEGMIRRLKAKGLKICVWINPYIGQKSPVFKELQEKGYLLKRPDGSLWQWDKWQPGLAIYDFTNPDACKWYADKLKGLVAMGVDCFKTDFGERIPTDVQWFDGSDPQKMHNHYAYIYNELVWNVLKDTVGEEEAVLFARSASVGAQKFPVHWGGDCYANYESMAESLRGGLSIGLSGFGFWSHDIGGFENTAPAHVYKRWCAFGLLSSHSRLHGSKSYRVPWAYDDESCDVVRFFTQLKCRMMPYLYREAARANARGTPMMRAMMMEFPDDPACDYLDRQYMLGDNVMVAPVFTEAGDVQFYLPEGRWTHLWHNDELDGSRWHKQQHGFLSLPVYVRDNTLLALGNNDQRPNYVWHEGTAFHLFNLQDGHEAVCEVPAADGSVIFTLKAARTGNTITVTGAGEAKNWTLCLRNVVKVNGLQDGSQAESEQGLVVKPQGNALTITLEGGSHHHHHH | soluble |
| MNAGSDPVVIVSAARTIIGSFNGALAAVPVQDLGSTVIKEVLKRATVAPEDVSEVIFGHVLAAGCGQNPVRQASVGAGIPYSVPAWSCQMICGSGLKAVCLAVQSIGIGDSSIVVAGGMENMSKAPHLAYLRTGVKIGEMPLTDSILCDGLTDAFHNCHMGITAENVAKKWQVSREDQDKVAVLSQNRTENAQKAGHFDKEIVPVLVSTRRGLIEVKTDEFPRHGSNIEAMSKLKPYFLTDGTGTVTPANASGINDGAAAVVLMKKSEADKRGLTPLARIVSWSQVGVEPSIMGIGPIPAIKQAVTKAGWSLEDVDIFEINEAFAAVSAAIVKELGLNPEKVNIEGGAIALGHPLGASGCRILVTLLHTLERMGRSRGVAALCIGGGMGIAMCVQRE | soluble |
| QVKLQQSGGGLVKPGASLKLSCVTSGFTFRKFGMSWVRQTSDKCLEWVASISTGGYNTYYSDNVKGRFTISRENAKNTLYLQMSSLKSEDTALYYCTRGYSSTSYAMDYWGQGTTVTVSGIEGR | soluble |
| MMTTIVMESTTEKVCEASSDACPKLETMFDATPQIVEIDGCQDITCPGNAVPYLVATFPASEIEPFYPMDVVNPFNVIPPSTISGSVIDYYGKICDGGVWKFTKYPDGIHVNDSDTIMGEDGSLTGKKSTLLVVTWYGFC | not soluble |
| MISKHSSRLPIWVLSPREEQQARKNLKTETYKKCANFVQAMADCAKANGMKVFPTCDKQRDEMKSCLLFYQTDEKYLDGERDKIVLEKINKLEKLCQKQSSTK | not soluble |
| MGSDKIHHHHHHQDGPLRIEITDGVIEPLPFAVPDFIADTPAAAQYATDIARVIAQDLVGSGLFREIPKVAYISPYTDFDAEVNFTDWKAINAQALIAGAVSLSGDRITVRFRGYDVFAGQELGAGLQLSGTTDGWRRIAHKVADTIYSRLTGEGGYFDSRVVFVSETGPKNDRKKRLAIMDYDGANVQYLTNSDAIVLAPRFSPTGDRVLYTSYESGFPQIHVLDVGRVQRRVLSAGNGSMSFAPRFAPNGQTIVYSQSQGGNTDLFSMDINSGNPQRLTSAPSIETAPSFSPDGSQIVFESDRSGTSQLYVMSASGGEAKRISFGQGRYGTPVWSPRGDYIAFTKQNAGRFHIGVMRTDGSEERLLTASFLDEGPTWSPNGRVIMFTRETQGASGQARLYSVDISGRNLKPVKTPDGASDPSWSPLQN | not soluble |
| VDICNHALLVGFGRVGSLLGEKLMAQGIPLVVVETSRTRVDELRERGISAVLGNAANEEIMELAHLDCARWLLLTIPNGYEAGEIVASAREKCPNIEIIARAHYDDEVDYIIDRGANQVVMGEREIARAMLRLLETPPAG | not soluble |
| MRSRERNRRPTLDELDRILTYFEQMRDRRRQEIDMLRVIVFALFSTRRQEEITRIRWDLLNESEQSALVTDMKNPGQKYGNDVWCHMPDEAWRVLQSMPKVADEVFPYNSRSVSASFTRACNFLEIEDLHFHDLRHDGVSRLFEMGWDIPKVASVSGHRDWNSMRRYTHLRGNGDPYAGWQWIERVISGPVIEAQVRVKRRAAGRAPLEHHHHHH | not soluble |
| MGSDKIHHHHHHMIVLSKRELFAMLPSVDEVLSDNRIVEIINEYPRSLVLESVREVIDLKRQFILRLKEDASNSVTIEFGEIIESAIERVKLNYSLSLKKVINATGTVIHTNLGRSLLSEDIKDELWCAASRYSNLEYDLDNGERGSRYSHLTSTIKRLTGAEDVLVVNNNAAAVLLVLSTMAKGGEAIVSRGELVEVGGSFRIPSIMALSGAELVEVGSTNKTHLKDYKEAITEDTNVLMKVHTSNYRIMGFTESVSIEELVNLGKKYKLPVIEDLGSGVFIDLSKYGLSYEPTVLDSIRQGADVVTFSGDKMLGGPQAGIIVGKKEYIEKMKKNQLTRALRVDKLTICALEATLRMYLDETKAIENIPTLKMLTYKIEELEVKANKLFEKITALNLNANINIEDGFSQVGGGSMPLETISTKVISITPEHMNVSSLEKKLRLSEAHIIARVYDNKYVLDVRTIFDDEFDVIVEELRKAFN | not soluble |
| MIITGSFGNGHLQVTQSVVNQFKEMNLDNLTVIEHDLFLEAHPILTSICKKWYINSFKYFRNMYKAFYYSQPDQLDKCFYKYYGLNKLMNLLLKEKPDLILLTFPTPVMSVLTEQFDMNIPIATVMTDYRMQKNWITPFSQRYYLATEELKDEFASIGIPKDKLKVTGIPISDKFELEHHHHHH | soluble |
| MSDTVEELVQRAKLAEQAERYDDMAAAMKKVTEQGQELSNEERNLLSVAYKNVVGARRSSWRVISSIEQKTEGSEKKQQLAKEYRVKVEQELNDICQDVLKLLDEFLIVKAGAAESKVFYLKMKGDYYRYLAEVASEDRAAVVEKSQKAYQEALDIAKDKMQPTHPIRLGLALNFSVFYYEILNTPEHACQLAKQAFDDAIAELDTLNEDSYKDSTLIMQLLRDNLTLWTSDVGAEDQEQEGNQEAGN | soluble |
| MNTQFSCVGCGKCCNDHHVPLTLLEARDWAADGGQVIILVEAFLGNGLGLPMQQREHAERRSCRVRSGATEAYVAITFAAYNVGPCRNLDEDQLCRIYQRRPLVCRIYPMEINPHIPLNPQAKECPPESWEQGPQLILGNELVDQELAELIRRSRQADRDDIHTKEAICALLGIRTTALKGDGFTAYLPDMGALANAIDQVQAAPPGAPGQPWRFHLSGDDIAGQVQAAGAQVVSETPLDYAFISLRAALEHHHHHH | soluble |
| SNAMTTKRVKKMGKEEMKEMFDLVIYAFNQEPTAERQERFEKLLSHTQSYGFLIDEQLTSQVMATPFQVNFHGVRYPMAGIGYVASYPEYRGEGGISAIMKEMLADLAKQKVALSYLAPFSYPFYRQYGYEQTFEQAEYTIKTEDWPRVKRVPGTIKRVSWADGKEVIKDVYLENQRAHSGGVIRETWWLDYTLNRASKPNNQAIYYSSEGKAEGYVIYRIAAGTFEIVEWNYLTNTAFKALAGFIGSHSGSVQSFHWINGFAGKDLNDLMPTPAASVKILPYMMARIVELQTFLEKYPFQSGEKETYSLEIEDSYGPWNEGIWTITIDEQGKATVTKGAAEKEGTAALKADIQTWTQLFLGYRSAETLSFYERLQGDATIAQRLGQRLVKGMPILEDYF | soluble |
| MHHHHHHENLYFQGSTSENITQKVVWVEESDKRSFLLDLLNATGKDSLTLVFVETKKGADSLEDFLYHEGYACTSIHGDRSQRDREEALHQFRSGKSPILVATAVAARGLDISNVKHVINFDLPSDIEEYVHRIGRTGRVGNLGLATSFFNERNINITKDLLDLLVEAKQEVPSWLENMAYEHHY | soluble |
| MGSDKIHHHHHHMRRIKIFDTTLRDGEQSPGASMSIEEKVEMALMLEDLGVDLIEAGFPVSSPVQFEAVKRVASAVQKPIVVGLARCVEKDIDAAYEALKDRPKDKRMIHVFIATSPIHRKYKLRMEKEEILERIRRYVGYAKQFFDLVEFSAEDASRTEVPFLIEAYKTAIEAGATTINVPDTVGYALPDEFGELIKTLREGVPGIENVDLSVHCHNDLGLAVANSLAAVQNGATQVEVTLNGIGERAGNCALEEFVMILKVRKDKLPYETGIKTELIYPASRLLTHITGLIPSRNKPIVGENVFLHESGIHQDGVLKHRETYEIMKPSDIGRSSETLVLGRHSGKHALRKKLETYGIKLDEETFQKVFEKFTELADRKKEVYDDDLFSIVSEVLREPINGYKLVHFHVHTGNTLLPTAAVVLQVGNEKREAAEAGNGPVDAIFKAIDKALGIQPKLEEYIIQAVGTGKNAQGEVKLTLRIDNELYSGRGVSTDIVEASAIAYINAINKYLIAKGLLRKNGGAE | not soluble |
| MSLLKVREMEREDVERVYEINRESFTTDAWSRFSFEKDFENKFSRRFVLEEDGKVVGYVIFWVVKEEATIMTFAIAPGYRGKGYGEKLLREAISRLGDKVKRVVLDVRKSNLRAINLYKKLGFKVVTERKGYYSDGENALLMELKISRPSEAELSREGHHHHHH | soluble |
| MRTALLQNLFSLFPFDLHGDCDVPPARDGIRVSCIINFYGRLNVLAGILWSLAQQDFPRSAFEVILVEDRGGSDEGRALAEEFSSRLPIVYAPLDKQYGLMGYSRNFGLERSRGEFILFLDDDTIILQDDFLKTMVAYFDAQPGVSAIMPHGEASFAFVDDRYDFHDPFFMTSRCTAYRRTVLASLGGFMSSFIGQEDVEFVIRFHAAGNRCAAVPQLAYRHPPLYVTNLGKPMAVGSSFYGIRKRYPLVTWLLAVVNCSRHLPLVLAPSRKYREMGRFGLGFLWGVLTAPFRSGSLNYRLEHHHHHH | not soluble |
| MSPVHWPIHPKEYKWTVKPSPGPHAIENSLPLMIIVRDILKVADNAREARKIINSGEVLVDGRPRKNYKFPVGFMDVVSIPRTGDVYRVLPDERGRLVLHPIDEENAGFKLCKIVNKTTIKGGRTQLNLHDGRNYLSDDEFRVGDVVKLSIPEQEILERIPFEKDSLGLVTGGRHTGEIGKIKKINITRSSMPNTAVIETGAGKTFLTLKDYVFVIGKDESVISLPGGKLEHHHHHH | not soluble |
